Source: patent US20170022258A1, “PEPTIDES FOR USE IN THE TREATMENT OF IL-1 RELATED DISEASES AND CONDITIONS” (C4M PHARMACEUTICALS PTY LTD., priority 2011, published 2017)
Non-standard residues stand in square brackets, D forms with d. No end group written: not given here.

How the values were obtained:
[1] = system: IL-1α-induced IL-8 production by HT-29 cells; test: IL-1α induced IL-8 production by HT-29 colonic epithelial cells; type: cell-based, human; settings: IL-1ra 500 control
Experimental: (§1) Human colon epithelial cell lines HT-29 and Caco2 obtained from the European Collection of Animal Cell Cultures (ECACC) were used in cell cultures. Cells were routinely cultured at 37° C. in an atmosphere of 5% CO2 in 80 cm^2 tissue culture flasks in McCoy's and DMEM medium, respectively, supplemented with penicillin (10 u/ml), streptomycin (10 μg/ml), fungizone (0.5 μg/ml), and 10% (v/v) FCS (referred to as complete medium) until confluent.
(§2) Confluent monolayers were sub-cultured into 6-well plates for experimental protocols. Cells were grown in 6-well plates until confluent. Twenty-four hours prior to the experiment the confluent monolayers were washed and cultured in FCS-free McCoy's medium. Growth arrested cultures were then treated with fresh FCS-free medium and stimulated with vehicle controls or various doses of IL-1α added alone or in combination with other pro-inflammatory cytokines (TNF-α, IFN-γ) in the presence or absence of the peptide of sequence 4 or IL-1 ra, in a dose and time dependent manner.
(§3) Supernatants were collected, centrifuged to remove cellular debris and stored at −70° C. until assayed for extracellular inflammatory mediators. Total RNA for RT-PCR was extracted as described above. Cell counting and viability was routinely checked at the beginning and the end of the experiment by phase microscopy and by trypan blue exclusion using representative wells. Mycoplasma tests were performed during the experimental protocol. Production of soluble mediators was assessed by commercially available ELISA in supernatants, RT-PCR in total RNA extractants and nitric oxide, as described in Kolios, G, et al. (1995). Br J Pharmacol, 116, 2866-2872, the contents of which are incorporated herein by reference.
HT 29 and Caco2 colonic epithelial cell lines were stimulated with 10 ng/ml of IL-la in the presence of 100 or 500 ng/ml of the peptide of sequence 4.

[2] = system: IL-1 stimulation of IL-8 in human skin fibroblasts; test: Inhibition of IL-1 induced IL-8 in human fibroblasts; type: cell-based; settings: n=3; maximal activation with IL-1 only 2530±13 pg/ml
Experimental: Inhibition of IL-1 induced IL-8 in human fibroblasts was determined using normal human dermal fibroblast cells cultured in DMEM with 10% fetal calf serum in 48-well plates.
Twenty-four hours before initiation of the experiment, the medium was changed to DMEM with 0.2% fetal calf serum. Each peptide was added to confluent cells, which were then pulsed for 30 min with rIL-I,B (which was obtained from R & D Systems) at 50 pg/ml. The cells were washed four times with PBS, and fresh DMEM/0.2% fetal calf serum was added to each well. After 5 hr of incubation, the culture media were collected and analyzed by ELISA for IL-8 (which was obtained from R & D Systems). Maximal activation, with IL-1 only, was 2530±13 pg/ml of IL-8. Nonspecific activation, determined in the presence of 1000-fold excess IL-1Ra, was 30±9 pg/ml of IL-8 (n=3).

[3] = system: IL-1α+IFN-γ induced IL-8 production by HT-29 cells; test: IL-1α+IFN-γ induced IL-8 production by HT-29 cells; type: cell-based, human; settings: IL-1ra control
Experimental: as §1, §2, §3
Stimulation of HT-29 cells with a combination of pro-inflammatory cytokines induces increased secretion of chemokines, including IL-8 (as described in Kolios, G, et al. (1999). Eur J Immunol, 29, 530-536 the contents of which are herein incorporated by reference). […]

[4] = system: IL-1α-induced IL-8 production by Caco2 cells; test: IL-1α induced IL-8 production by Caco2 colonic adenocarcinoma cells; type: cell-based, human; settings: IL-1ra 100 ng/ml, IL-1α alone 476.93±78.9, n=3
Experimental: as §1, §2
(§4) Supernatants were collected, centrifuged to remove cellular debris and stored at −70° C. until assayed for extracellular inflammatory mediators. […] Production of soluble mediators was assessed by commercially available ELISA in supernatants, RT-PCR in total RNA extractants and nitric oxide, as described in Kolios, G, et al. (1995). […]

[5] = system: IL-1α+IFN-γ induced IL-17 production by HT-29 cells; test: IL-1α+IFN-γ induced IL-17 production by HT-29 cells; type: cell-based, human; settings: IL-1ra control
Experimental: as §1, §2, §4

[6] = background statement; cited from earlier work
[7] = biological target: IL-1 receptor (IL-1R) expressed on human monocytes (human) (UniProt P14778); test: radioligand competition, 40 pM 125I-IL-1α on confluent human monocytes
[8] = biological target: IL-1 receptor (IL-1R) expressed on human monocytes (human) (UniProt P14778); test: cell-based or functional assay
[9] = biological target: T1, IL-1 receptor (IL-1R) expressed on human monocytes (human), P14778; test: cell-based or functional assay
T1 chain: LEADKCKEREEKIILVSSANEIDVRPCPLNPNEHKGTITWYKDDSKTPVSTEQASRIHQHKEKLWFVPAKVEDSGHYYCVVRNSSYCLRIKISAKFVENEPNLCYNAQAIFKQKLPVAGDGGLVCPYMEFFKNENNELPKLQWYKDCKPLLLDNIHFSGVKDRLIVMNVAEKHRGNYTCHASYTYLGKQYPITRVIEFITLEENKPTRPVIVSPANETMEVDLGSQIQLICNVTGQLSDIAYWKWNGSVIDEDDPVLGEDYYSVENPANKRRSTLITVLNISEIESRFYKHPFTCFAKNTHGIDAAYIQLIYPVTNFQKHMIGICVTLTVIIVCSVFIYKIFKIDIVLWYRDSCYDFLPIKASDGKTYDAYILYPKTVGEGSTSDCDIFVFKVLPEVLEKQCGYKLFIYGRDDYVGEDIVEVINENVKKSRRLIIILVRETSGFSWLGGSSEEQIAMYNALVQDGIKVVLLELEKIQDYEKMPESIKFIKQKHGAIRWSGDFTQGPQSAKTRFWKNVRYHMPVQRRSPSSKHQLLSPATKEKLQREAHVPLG

[10] = biological target: T1, IL-1 receptor (IL-1R) expressed on …; test: radioligand competition, 40 pM 125I-IL-1α on confluent human monocytes

IL-1ra: IL-1R antagonist, member of the IL-1 cytokine family; competitively inhibits the activities of IL-1 [reference compound]
IL-8 production in the absence of IL-1α [1]: did not result in production of IL-8 | IL-8, nonspecific activation in the presence of 1000-fold excess IL-1Ra [2]: 30 ± 9 pg/mL | IL-8 production in the absence of IL-1α [3]: did not result in production of IL-8 | IL-1α-induced IL-8 secretion [4]: 923.95±63.69 pg/ml per 106 cells | IL-17 production without cytokine stimulation [5]: did not produce significant amounts of IL-17

recombinant IL-1Ra: recombinant full length IL-1Ra approved for methotrexate resistant rheumatoid arthritis (Amgen: Kineret-Anakinra)
half-life [6]: approximately six

Ac-[dL][dP][dL][dA][dY][dP][dQ][dW][dY][dY][dA][dN][dS][dE][dE][dW][dT][dF] [peptide of SEQ ID NO: 16 (Ac-…, D-amino acids)]
IC50 [7]: 22 nM | IC50, in vitro inhibition of IL-1 stimulation of IL-8 in human skin fibroblasts (rIL-1β 50 pg/ml, IL-8 ELISA) [8]: 120 nM

Ac-[dL][dP][dL][dA][dY][dP][dQ][dW][dY]G[dP][dT][dW][dE][dF][dS][dS][dV][dN][dA][dT] (not fully specified (residue 10); printed as Ac-LPLAYPQWYGPTWEFSSVNAT) [peptide of SEQ ID NO: 18 (Ac-…, D-amino acids)]
IC50 [7]: 190 nM | IC50, in vitro inhibition of IL-1 stimulation of IL-8 in human skin fibroblasts (rIL-1β 50 pg/ml, IL-8 ELISA) [8]: 810 nM

Ac-[dL][dP][dL][dA][dY][dP][dQ][dW][dY]G[dP][dT][dW][dE][dF]
IC50, in vitro inhibition of IL-1 stimulation of IL-8 in human skin fibroblasts (rIL-1β 50 pg/ml, IL-8 ELISA) [9]: 5.9 nM | IC50 [10]: 6.9 nM
